Results from article PMC4017094, “Mouse SLX4 Is a Tumor Suppressor that Stimulates the Activity of the Nuclease XPF-ERCC1 in DNA Crosslink Repair” (Molecular Cell, 2014).

T1: XPF-ERCC1 nuclease (XE), recombinant (UniProt Q9QZD4 1-917; P07903 1-298)
T1 sequence (looked up) 1: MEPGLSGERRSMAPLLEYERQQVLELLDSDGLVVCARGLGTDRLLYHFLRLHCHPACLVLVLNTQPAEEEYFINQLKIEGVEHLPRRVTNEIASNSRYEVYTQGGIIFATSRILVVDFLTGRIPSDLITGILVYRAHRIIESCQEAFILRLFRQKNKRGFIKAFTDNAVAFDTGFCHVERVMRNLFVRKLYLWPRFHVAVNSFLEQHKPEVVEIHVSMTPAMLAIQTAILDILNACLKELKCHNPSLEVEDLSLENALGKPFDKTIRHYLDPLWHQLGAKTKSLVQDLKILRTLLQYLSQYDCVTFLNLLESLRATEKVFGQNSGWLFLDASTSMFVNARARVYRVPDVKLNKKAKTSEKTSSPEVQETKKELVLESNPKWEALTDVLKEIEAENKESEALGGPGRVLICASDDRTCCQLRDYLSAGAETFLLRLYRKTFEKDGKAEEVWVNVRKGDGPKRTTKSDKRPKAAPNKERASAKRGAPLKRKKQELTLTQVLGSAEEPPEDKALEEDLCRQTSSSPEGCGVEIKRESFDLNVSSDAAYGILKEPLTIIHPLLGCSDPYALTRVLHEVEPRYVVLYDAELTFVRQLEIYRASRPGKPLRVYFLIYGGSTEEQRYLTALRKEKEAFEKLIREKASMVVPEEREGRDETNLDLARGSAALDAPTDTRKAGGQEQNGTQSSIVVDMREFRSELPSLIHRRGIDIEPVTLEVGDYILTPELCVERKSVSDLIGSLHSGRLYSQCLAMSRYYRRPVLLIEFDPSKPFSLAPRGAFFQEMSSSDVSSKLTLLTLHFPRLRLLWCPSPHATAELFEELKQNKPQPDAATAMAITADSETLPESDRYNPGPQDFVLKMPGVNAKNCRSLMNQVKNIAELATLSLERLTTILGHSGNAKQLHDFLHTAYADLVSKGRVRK
T1 sequence (looked up) 2: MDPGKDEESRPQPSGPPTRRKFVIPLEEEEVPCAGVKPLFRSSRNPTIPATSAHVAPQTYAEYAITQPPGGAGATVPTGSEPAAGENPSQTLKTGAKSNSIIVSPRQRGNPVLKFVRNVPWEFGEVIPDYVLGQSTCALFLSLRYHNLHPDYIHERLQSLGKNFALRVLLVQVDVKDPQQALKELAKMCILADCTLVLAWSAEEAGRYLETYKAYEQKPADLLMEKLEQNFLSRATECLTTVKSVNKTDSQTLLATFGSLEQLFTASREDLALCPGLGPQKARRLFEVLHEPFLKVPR


Tests used:
[1] = target: T1, XPF-ERCC1 nuclease (XE), recombinant; assay: cell-based or functional assay
[2] = target: T1, XPF-ERCC1 nuclease (XE), recombinant; assay: SEC-MALS; light-scattering analysis of the purified SXE complex (Figure S1F); conditions: both partners purified
[3] = target: the molecule itself; assay: as above

incision rate on the interstrand crosslink (ICL) fork substrate, SXE against XE (5 nM enzyme) [1] | nuclease rate on the bubble substrate, SXE against XE (5 nM enzyme) [1] | nuclease rate on the fork substrate Y11, SXE against XE (5 nM enzyme) [1] | nuclease rate on the long stem-loop substrate, SXE against XE (5 nM enzyme) [1] | stoichiometry N [2] | Binder | stoichiometry N [3]
110 fold | 3.5 fold | 16 fold | 3.7 fold | 1 | Recombinant mini-SLX4 (1-758) (domain or fragment, mouse, UniProt Q6P1D7 1-758, looked up, mouse SLX4, residues 1-758; source: insect cells, purified (in complex with XPF-ERCC1, or alone)) MVPESAPNGNSQPLPSCFTTTGVPSPSKPRVSELVLQRMKQFKRADPERLRHASEESPQKTALGDDVPRSPPEETVGENEYKLDATDSDAAMALALQQEFRREEASSHHDSLEEKGLFFCQMCQKNLSAMNVTRREQHVNRCLDEAEKAQRPASPRIPDCPICGKPFLTTKSRISHLKQCAVRMEVGPQLLLQAVRLQTAQPEVDGSPQVPSFSNNVGGLKRKGVTTKREPRRRKVNKPEAPSEDLLVAMALSRSEVEHCPVVPPLRLENAFSEKIRLGAEKKSRKKRPPVCPPQLVTQDSETTGRQIEDRVAQLLSEEAELSCTPPLLASKISKEELEPAGWRARLPEGKRNFLWELSALTGAWAEESFYTVGLFPPIVSQCPSKEPQLPLELPKQGEPSPRRPPASQSSLPVSHSPKIRLLSSSQRERQALQDLVDLAVEGLSSSPQPGSRGVPTGLDLVPSSLPLTGFVLPCKKTLKKDDSASLSLGLLVTDFGAMVNNPHLSDVQFQLDSGEVLYAHKFVLYARCPLLIQYVSTESFSSEEDGDLTQRALLSDVSSEAAHAFLNYLYMADTDMPPSLVPDLRSLALRFGVSDLVQLCEQVPAVVDLEGEQPEETSEDCESRAETFLELLRSVWVDNEEEVETLLKPELCEEERERVNEAEMEEIYEFAATQRKLLQWGRAADPDGSTNPHGEDGAVSEPSLAGVQSNRQLENTEHMESSGLEKEEALASWEQEGHSTPLQDQCPDWAGKAEAQD | 
 |  |  |  |  | mini-SLX4-XPF-ERCC1 (SXE) complex (complex, mouse SLX4, residues 1-758; XPF, wild type; ERCC1; 430 kDa by light scattering; also called WT SXE; source: insect cells, purified; copies: 2 + 2 + 2) chain 1: MVPESAPNGNSQPLPSCFTTTGVPSPSKPRVSELVLQRMKQFKRADPERLRHASEESPQKTALGDDVPRSPPEETVGENEYKLDATDSDAAMALALQQEFRREEASSHHDSLEEKGLFFCQMCQKNLSAMNVTRREQHVNRCLDEAEKAQRPASPRIPDCPICGKPFLTTKSRISHLKQCAVRMEVGPQLLLQAVRLQTAQPEVDGSPQVPSFSNNVGGLKRKGVTTKREPRRRKVNKPEAPSEDLLVAMALSRSEVEHCPVVPPLRLENAFSEKIRLGAEKKSRKKRPPVCPPQLVTQDSETTGRQIEDRVAQLLSEEAELSCTPPLLASKISKEELEPAGWRARLPEGKRNFLWELSALTGAWAEESFYTVGLFPPIVSQCPSKEPQLPLELPKQGEPSPRRPPASQSSLPVSHSPKIRLLSSSQRERQALQDLVDLAVEGLSSSPQPGSRGVPTGLDLVPSSLPLTGFVLPCKKTLKKDDSASLSLGLLVTDFGAMVNNPHLSDVQFQLDSGEVLYAHKFVLYARCPLLIQYVSTESFSSEEDGDLTQRALLSDVSSEAAHAFLNYLYMADTDMPPSLVPDLRSLALRFGVSDLVQLCEQVPAVVDLEGEQPEETSEDCESRAETFLELLRSVWVDNEEEVETLLKPELCEEERERVNEAEMEEIYEFAATQRKLLQWGRAADPDGSTNPHGEDGAVSEPSLAGVQSNRQLENTEHMESSGLEKEEALASWEQEGHSTPLQDQCPDWAGKAEAQD chain 2: MEPGLSGERRSMAPLLEYERQQVLELLDSDGLVVCARGLGTDRLLYHFLRLHCHPACLVLVLNTQPAEEEYFINQLKIEGVEHLPRRVTNEIASNSRYEVYTQGGIIFATSRILVVDFLTGRIPSDLITGILVYRAHRIIESCQEAFILRLFRQKNKRGFIKAFTDNAVAFDTGFCHVERVMRNLFVRKLYLWPRFHVAVNSFLEQHKPEVVEIHVSMTPAMLAIQTAILDILNACLKELKCHNPSLEVEDLSLENALGKPFDKTIRHYLDPLWHQLGAKTKSLVQDLKILRTLLQYLSQYDCVTFLNLLESLRATEKVFGQNSGWLFLDASTSMFVNARARVYRVPDVKLNKKAKTSEKTSSPEVQETKKELVLESNPKWEALTDVLKEIEAENKESEALGGPGRVLICASDDRTCCQLRDYLSAGAETFLLRLYRKTFEKDGKAEEVWVNVRKGDGPKRTTKSDKRPKAAPNKERASAKRGAPLKRKKQELTLTQVLGSAEEPPEDKALEEDLCRQTSSSPEGCGVEIKRESFDLNVSSDAAYGILKEPLTIIHPLLGCSDPYALTRVLHEVEPRYVVLYDAELTFVRQLEIYRASRPGKPLRVYFLIYGGSTEEQRYLTALRKEKEAFEKLIREKASMVVPEEREGRDETNLDLARGSAALDAPTDTRKAGGQEQNGTQSSIVVDMREFRSELPSLIHRRGIDIEPVTLEVGDYILTPELCVERKSVSDLIGSLHSGRLYSQCLAMSRYYRRPVLLIEFDPSKPFSLAPRGAFFQEMSSSDVSSKLTLLTLHFPRLRLLWCPSPHATAELFEELKQNKPQPDAATAMAITADSETLPESDRYNPGPQDFVLKMPGVNAKNCRSLMNQVKNIAELATLSLERLTTILGHSGNAKQLHDFLHTAYADLVSKGRVRK chain 3: MDPGKDEESRPQPSGPPTRRKFVIPLEEEEVPCAGVKPLFRSSRNPTIPATSAHVAPQTYAEYAITQPPGGAGATVPTGSEPAAGENPSQTLKTGAKSNSIIVSPRQRGNPVLKFVRNVPWEFGEVIPDYVLGQSTCALFLSLRYHNLHPDYIHERLQSLGKNFALRVLLVQVDVKDPQQALKELAKMCILADCTLVLAWSAEEAGRYLETYKAYEQKPADLLMEKLEQNFLSRATECLTTVKSVNKTDSQTLLATFGSLEQLFTASREDLALCPGLGPQKARRLFEVLHEPFLKVPR | 2
